From patent US20190256584A1 (University of California, published 2019)
Numbering of substitutions follows the chain as printed.

T1: Botulinum neurotoxin serotype C (BoNT/C) (Clostridium botulinum, UniProt P18640 2-1291)
T1 sequence: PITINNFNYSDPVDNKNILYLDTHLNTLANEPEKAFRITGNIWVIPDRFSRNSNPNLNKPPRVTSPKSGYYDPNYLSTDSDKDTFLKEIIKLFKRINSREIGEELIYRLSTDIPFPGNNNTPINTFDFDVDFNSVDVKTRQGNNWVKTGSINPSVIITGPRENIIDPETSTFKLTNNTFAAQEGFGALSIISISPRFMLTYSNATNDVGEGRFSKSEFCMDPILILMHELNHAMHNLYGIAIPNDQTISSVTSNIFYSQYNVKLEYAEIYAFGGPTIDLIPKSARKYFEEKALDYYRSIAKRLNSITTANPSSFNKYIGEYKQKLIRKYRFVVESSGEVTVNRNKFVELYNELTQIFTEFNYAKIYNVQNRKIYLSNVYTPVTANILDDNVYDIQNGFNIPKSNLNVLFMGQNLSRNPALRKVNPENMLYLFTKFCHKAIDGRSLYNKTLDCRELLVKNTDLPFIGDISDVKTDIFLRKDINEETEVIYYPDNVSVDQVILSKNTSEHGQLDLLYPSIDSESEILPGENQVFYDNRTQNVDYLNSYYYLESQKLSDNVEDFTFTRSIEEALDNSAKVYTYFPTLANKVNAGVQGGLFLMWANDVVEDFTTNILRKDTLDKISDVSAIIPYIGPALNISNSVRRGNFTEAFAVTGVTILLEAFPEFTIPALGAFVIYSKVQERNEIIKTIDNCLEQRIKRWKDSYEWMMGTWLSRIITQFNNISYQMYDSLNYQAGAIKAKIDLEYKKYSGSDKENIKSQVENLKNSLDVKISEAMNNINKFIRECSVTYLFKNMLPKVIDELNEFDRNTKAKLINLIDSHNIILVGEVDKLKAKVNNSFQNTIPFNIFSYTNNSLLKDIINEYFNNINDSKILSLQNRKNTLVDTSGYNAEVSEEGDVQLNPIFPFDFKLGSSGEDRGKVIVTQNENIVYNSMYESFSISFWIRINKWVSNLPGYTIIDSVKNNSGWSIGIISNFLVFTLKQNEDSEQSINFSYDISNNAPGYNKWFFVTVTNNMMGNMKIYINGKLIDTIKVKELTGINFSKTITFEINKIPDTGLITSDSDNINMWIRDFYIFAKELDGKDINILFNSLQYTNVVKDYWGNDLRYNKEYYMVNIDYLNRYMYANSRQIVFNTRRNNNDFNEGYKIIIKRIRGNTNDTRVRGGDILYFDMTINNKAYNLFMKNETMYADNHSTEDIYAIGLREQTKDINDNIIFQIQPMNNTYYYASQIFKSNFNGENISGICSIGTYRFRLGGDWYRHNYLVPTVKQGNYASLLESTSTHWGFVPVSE

B1: 4C10.5 IgG (antibody, V domains shown)
VH: QVQLVQSGGGVVQPGRSLRLSCGASRFTFSGFDMHWVRQAPGKGLEWVARISHDGSMADYADSLRGRFTISRDNSKNTLYLQMNSLRVEDTALYYCAKDRWRSGSYPAFEIWGQGTMVTVSS
VL: EIVLTQSPSFLSAFVGDRITITCRASQGISNRLAWYQQKPGKAPNLLIHPASTLQSGVPSRFSGSGSGTDFTLTISSLQPEDFATYYCQQANSFPLTFGGGTKVEIKR
B2: 4C10.18 IgG (antibody, V domains shown)
VH: B1 VH with V12A
VL: B1 VL with S30G, N92H, S93R
B3: 4C10.22 IgG (antibody, V domains shown)
VH: B1 VH with R26G, T28K, R100P
VL: B1 VL with V15I, H49Y
B4: 4C10.15 IgG (antibody, V domains shown)
VH: B1 VH
VL: B1 VL with Q27K, S30G
B5: 4C10.17 IgG (antibody, V domains shown)
VH: B1 VH
VL: B1 VL with T53S
B6: 4C10.20 IgG (antibody, V domains shown)
VH: B1 VH with R100P
VL: B1 VL with V15I, S30G, H49Y
B7: 4C10.8 IgG (antibody, V domains shown)
VH: B1 VH with R100P
VL: B1 VL with V15I, H49Y
B8: 4C10.23 IgG (antibody, V domains shown)
VH: B1 VH with R26G, T28K
VL: B1 VL with Q27K, S30G

Assays:
[1] = target: Botulinum neurotoxin mosaic BoNT/DC (Clostridium botulinum); assay: KinExA, IgG
[2] = target: Botulinum neurotoxin mosaic BoNT/DC (Clostridium botulinum); assay: range-finding KinExA, IgG
[3] = target: T1, Botulinum neurotoxin serotype C (BoNT/C); assay: KinExA, IgG
[4] = target: T1, Botulinum neurotoxin serotype C (BoNT/C); assay: range-finding KinExA, IgG

| Binder | Kd [1] [nM] | Kd [2] [nM] | Kd [3] [nM] | Kd [4] [nM] |
| --- | --- | --- | --- | --- |
| B1 | 0.987 | 0.987 | 0.0651 | 0.0651 |
| B2 | 0.109 | 0.109 | 0.0108 | 0.0108 |
| B3 | 0.0604 | 0.0604 | 0.00192 | 0.00192 |
| B4 | 0.112 | 0.112 | 0.0122 | 0.0122 |
| B5 | 0.766 | 0.766 | 0.0325 | 0.0325 |
| B6 | 0.0166 | 0.0166 | 0.00102 | 0.00102 |
| B7 | 0.0564 | 0.0564 | 0.0035 | 0.0035 |
| B8 | 0.0904 | 0.0904 | 0.00665 | 0.00665 |
